From patent US20220175942A1 (OXFORD UNIVERSITY INNOVATION, published 2022)

B1: CCL1_HUMAN (ligand)
chain: KSMQVPFSRCCFSFAEQEIPLRAILCYRNTSSICSNEGLIFKLKRGKEACALDTVGWVQRHRKMLRHCPSKRK
notes: Biotinylated (detected with streptavidin-Alexa647) in yeast display; AlexaFluor 647 labelled (Almac) in thermophoresis
B5: CCL11_HUMAN (ligand)
chain: not shown
notes: as for B1
B10: CCL18_HUMAN (ligand)
chain: AQVGTNKELCCLVYTSWQIPQKFIVDYSETSPQCPKPGVILLTKRGRQICADPNKKWVQKYISDLKLNA
notes: as for B1
B13: CCL19_HUMAN (ligand)
chain: GTNDAEDCCLSVTQKPIPGYIVRNFHYLLIKDGCRVPAVVFTTLRGRQLCAPPDQPWVERIIQRLQRTSAKMKRRSS
notes: as for B1

Assays:
[1] = molecular target: T1, P467_RHIPU (Rhipicephalus pulchellus, UniProt L7M8Z8 22-127); test: yeast surface display library FACS screen, labelled chemokine (col C: isolated in)
T1 construct: Tick evasin; also called Evasin
T1 sequence: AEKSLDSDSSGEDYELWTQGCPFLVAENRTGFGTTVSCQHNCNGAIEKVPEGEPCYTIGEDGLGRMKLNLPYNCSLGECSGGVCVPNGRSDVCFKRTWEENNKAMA

[2] = molecular target: T2, P546_AMBCA (Amblyomma cajennense, UniProt A0A023FBW7 22-118); test: microscale thermophoresis, AlexaFluor 647 labelled chemokine
T2 construct: Tick evasin; also called Evasin
T2 sequence: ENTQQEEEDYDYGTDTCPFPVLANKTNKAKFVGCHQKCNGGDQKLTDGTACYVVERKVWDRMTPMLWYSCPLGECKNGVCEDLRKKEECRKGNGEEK

[3] = molecular target: T3, CCL5_HUMAN (human, UniProt P13501 24-91); test: yeast surface display FACS re-test, >3 fold MFI over control (col D);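 note: yeast displaying putative tick Evasins stained with biotinylated human chemokine plus streptavidin-Alexa647, flow cytometry, positive when MFI exceeds 3-fold the empty-vector or no-chemokine background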
T3 construct: Biotinylated (detected with streptavidin-Alexa647) in yeast display; AlexaFluor 647 labelled (Almac) in thermophoresis
T3 sequence: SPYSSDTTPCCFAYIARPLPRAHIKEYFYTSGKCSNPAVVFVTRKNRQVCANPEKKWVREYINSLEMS

[4] = molecular target: T4, CCL17_HUMAN (human, UniProt Q92583 24-94); test: as above
T4 construct: Biotinylated (detected with streptavidin-Alexa647) in yeast display; AlexaFluor 647 labelled (Almac) in thermophoresis
T4 sequence: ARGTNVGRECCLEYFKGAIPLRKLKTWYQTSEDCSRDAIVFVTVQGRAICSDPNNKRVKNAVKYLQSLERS

[5] = molecular target: T5, CCL3_HUMAN (human, UniProt P10147 24-92); test: as above
T5 construct: Biotinylated (detected with streptavidin-Alexa647) in yeast display; AlexaFluor 647 labelled (Almac) in thermophoresis
T5 sequence: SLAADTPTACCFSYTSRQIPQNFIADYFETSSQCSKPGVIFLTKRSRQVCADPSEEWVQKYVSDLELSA

[6] = molecular target: T6, CXCL8_HUMAN (human, UniProt P10145 28-99); test: as above
T6 construct: Biotinylated (detected with streptavidin-Alexa647) in yeast display; AlexaFluor 647 labelled (Almac) in thermophoresis
T6 sequence: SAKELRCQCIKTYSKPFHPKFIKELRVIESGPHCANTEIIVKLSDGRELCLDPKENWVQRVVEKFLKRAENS

[7] = molecular target: B13; test: as above
[8] = molecular target: T7, CCL25_HUMAN (human, UniProt O15444 24-150); test: yeast surface display library FACS screen, labelled chemokine (col C: isolated in)
T7 construct: Biotinylated (detected with streptavidin-Alexa647) in yeast display; AlexaFluor 647 labelled (Almac) in thermophoresis
T7 sequence: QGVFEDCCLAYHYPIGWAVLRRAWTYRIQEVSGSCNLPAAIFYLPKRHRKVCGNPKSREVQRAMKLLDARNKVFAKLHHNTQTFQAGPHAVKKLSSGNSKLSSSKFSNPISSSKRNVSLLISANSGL

[9] = molecular target: B5; test: as above
[10] = molecular target: B1; test: as above
[11] = molecular target: T7, CCL25_HUMAN; test: yeast surface display FACS re-test, >3 fold MFI over control (col D);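 note: yeast displaying putative tick Evasins stained with biotinylated human chemokine plus streptavidin-Alexa647, flow cytometry, positive when MFI exceeds 3-fold the empty-vector or no-chemokine background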
[12] = molecular target: B10; test: as above
[13] = molecular target: T8, CCL20_HUMAN (human, UniProt P78556 27-96); test: as above
T8 construct: Biotinylated (detected with streptavidin-Alexa647) in yeast display; AlexaFluor 647 labelled (Almac) in thermophoresis
T8 sequence (P78556 27-96 limits assumed): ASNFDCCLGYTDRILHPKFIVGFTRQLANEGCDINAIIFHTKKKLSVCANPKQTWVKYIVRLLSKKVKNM

[14] = molecular target: T9, CCL8_HUMAN (human, UniProt P80075 24-99); test: as above
T9 construct: Biotinylated (detected with streptavidin-Alexa647) in yeast display; AlexaFluor 647 labelled (Almac) in thermophoresis
T9 sequence: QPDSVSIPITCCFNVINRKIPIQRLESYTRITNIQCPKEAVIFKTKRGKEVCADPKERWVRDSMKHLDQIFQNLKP

[15] = molecular target: T4, CCL17_HUMAN; test: yeast surface display library FACS screen, labelled chemokine (col C: isolated in)
[16] = molecular target: T3, CCL5_HUMAN; test: as above
[17] = molecular target: T6, CXCL8_HUMAN; test: as above
[18] = molecular target: T10, P1243_AMBAM (Amblyomma americanum, UniProt A0A0C9S461 26-123); test: as above
T10 construct: Tick evasin; also called Evasin
T10 sequence: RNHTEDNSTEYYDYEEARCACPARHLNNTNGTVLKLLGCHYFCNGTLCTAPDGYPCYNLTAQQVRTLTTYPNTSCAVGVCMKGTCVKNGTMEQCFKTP

[19] = molecular target: T11, P1182_AMBMA (Amblyomma maculatum, UniProt G3MJ83 27-115); test: as above
T11 construct: Tick evasin; also called Evasin
T11 sequence: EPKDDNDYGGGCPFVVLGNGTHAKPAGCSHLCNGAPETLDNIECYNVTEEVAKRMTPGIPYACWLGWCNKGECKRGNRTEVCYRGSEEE

[20] = molecular target: T12, CXCL10_HUMAN (human, UniProt P02778 22-98); test: as above
T12 construct: Biotinylated (detected with streptavidin-Alexa647) in yeast display; AlexaFluor 647 labelled (Almac) in thermophoresis
T12 sequence: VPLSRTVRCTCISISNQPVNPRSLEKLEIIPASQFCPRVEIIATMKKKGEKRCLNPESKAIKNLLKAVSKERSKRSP

[21] = molecular target: B13; test: as above
[22] = molecular target: T10, P1243_AMBAM; test: yeast surface display FACS re-test, >3 fold MFI over control (col D);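 note: yeast displaying putative tick Evasins stained with biotinylated human chemokine plus streptavidin-Alexa647, flow cytometry, positive when MFI exceeds 3-fold the empty-vector or no-chemokine background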
[23] = molecular target: T13, P991_AMBCA (Amblyomma cajennense, UniProt A0A023FFD0 29-136); test: yeast surface display library FACS screen, labelled chemokine (col C: isolated in)
T13 construct: Tick evasin; also called Evasin
T13 sequence: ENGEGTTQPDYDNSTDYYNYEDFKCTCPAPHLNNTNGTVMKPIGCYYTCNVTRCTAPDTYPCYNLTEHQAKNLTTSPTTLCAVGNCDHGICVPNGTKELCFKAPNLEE

B1
binding result [1]: binds
Kd [2]: 149 nM

B2: P1005_AMBMA (other)
chain: EKDTPKNIPGCGDTGTTAAPPADNPKHFAVYTDKHGCTIKVIGTWMTKEDHSRLPVSLRRVRASSGRVMLPASCQKICNDTVKNFPEGTPCRLVTGDPIKGKNHIKDGCIRGYCSSGVCVSDKRNISCYVPPN
notes: Tick evasin; also called Evasin
binding result [3]: binds
binding result [4]: binds
binding result [5]: binds
binding result [6]: binds
binding result [7]: binds
binding result [8]: binds
binding result [9]: binds
binding result [10]: binds

B3: P1011_AMBTR (other)
chain: EKDTPKNIPGCEDAGTTAAPPADNPKHYAVYTDKNGCTFKVIGTWMTKEDHRRLPVSLRRVRASSGRVKLPASCQKICKHSVKKFPEGTPCRLVTRDPIKGKNHIKNGCIRGYCSSGVCVSDNRSISCYVLPNNTELTSPSGSFAE
notes: as for B2
binding result [11]: binds
binding result [3]: binds
binding result [4]: binds
binding result [12]: binds
binding result [9]: binds

B4: P1030_AMBPA (other)
chain: GPPSIPGNESIPGCGDAGTTTAPEDNPKHYGTLTDKKGCTLPIIGTWMTAVDHQHLQGTRGERRGPTGKVNLPASCRKNCHGRQEILRDGIPCRKVVGNPKGSKKHLKSGCLRGKCLAGQCVNDGRRISCYVPRNITDTEPTPGLLAE
notes: Tick evasin
binding result [3]: binds
binding result [13]: binds
binding result [14]: binds
binding result [5]: binds
binding result [6]: binds
binding result [12]: binds
binding result [9]: binds
binding result [15]: binds

B5
Kd [2]: 500 nM

B6: CCL22_HUMAN (ligand)
chain: GPYGANMEDSVCCRDYVRYRLPLRVVKHFYWTSDSCPRPGVVLLTFRDKEICADPRVPWVKMILNKLSQ
notes: as for B1
Kd [2]: 175 nM

B7: CXCL11_HUMAN (ligand)
chain: FPMFKRGRCLCIGPGVKAVKVADIEKASIMYPSNNCDKIEVIITLKENKGQRCLNPKSKQARLIIKKVERKNF
notes: as for B1
binding result [2]: no binding

B8: P1063_AMBTR (other)
chain: QSEVGKNVPGCGDTETLEAPPQEKPPYYEYKDEEGCTQKVLESWFQAGERSTGRGQKKRGHGRRPSRVLRTVDCRKNCTVGITALPDGHLCLVPRGDPFTRGGAIKYGCYLGDCASGHCQHRYETVSCRLPAPDTTAKPYYVTPEK
notes: as for B2
binding result [16]: binds

B9: P1146_IXORI (other)
chain: GPDTKGDEESDENELFTVEYCGTNCTQLENGSWTPCSGNNGNCRCFHESDKTVGLCLSTEYTDFSEYPDPNSSEIIAAAPLPRERLIQ
notes: as for B2
binding result [17]: binds

B10
binding result [18]: binds
binding result [19]: binds
Kd [2]: 86 nM

B11: P1219_IXORI (other)
chain: ASLAKETEDTTLPARALVDSPDSDNCSSPQLPYFDELTYMPLGFLAVNCTKTCPVGKNGTVVNGNKCIVTWSILDVSTITVLVGSCKNGYCISDGSSECRNITLAGEDSQEEEEEAEEDEEEDDGDEEEDEEEDEEENDDD
notes: as for B2
binding result [20]: binds
binding result [21]: binds

B12: P1220_IXORI (other)
chain: GSTPSAMKTEDILKVLGSTSSLENHTDSSHCRYQELLDITKNIENAGFLAINCQRSCPNGKQTMVEGYGCIFKIKHATKRGKVKVKEGSCRKGACVRGSTRPPWRLLVLLGESKEEEFL
notes: as for B2
binding result [8]: binds

B13
binding result [22]: binds
binding result [23]: binds

B14: P1283_IXORI (other)
chain: KEPEDTTLPPGALVDSPDSDNCSSPHLPYFDETTNMWMGFLAVNCTKKCPVGKHVTVVDGNKCIGTWSFLDELTITVLVGSCKDGFCETDGSSECRNITLAEEDSQEEEGAAAEEEDEEDEEDEEEEEAEEEREDDHDDA
notes: as for B2
binding result [20]: binds

B15: P698_RHISA (other)
chain: NEDDSSDYYDASPMNCSSMSVNSTMGWLSMNCTMSCNGTTFPLSNSTHCFHSYTNLTVQSRMETMTYNCSVGTCSNGTCVENGTTTTCW
notes: as for B2
binding result [14]: binds

B16: P943_IXORI (other)
chain: RSKQPTASQSSKNSIKAEFCDTNCTQGTNGAWSGCSEGCFCVHVGNNTKGRCMKLSSDYDYTTQ
notes: as for B2
binding result [16]: binds
